Experimental data from patent US20190144550A1.

Experiments:
[1] = target: wild-type EGFR expressed on cells (human), P00533; test: flow cytometry, A431 cells; conditions: remark: other sources report otherwise
[2] = target: wild-type EGFR expressed on cells (human), P00533; test: flow cytometry, F98-EGFRwt cells; conditions: remark: other sources report otherwise

Row | Binder | % positive [1] | MFI [1] | % positive [2] | MFI [2]
1 | 20E12 (antibody, V domains shown) VH: EVNLVESGGGLVKPGGSLRLSCEASGFTFSYAWMSWVRQAPGKGLEWVGRIKSIADGGATDYAAPVRNRFTISRDDSRNTLYLEMHSLKTEDTAVYYCTTIPGNDAFDMWGQGTMVTVSS VL: DIVLTQSPLSLSVTPGEPASISCRSSQSLLYSNGKNYLDWFLHKPGQSPQLLIYLGSNRASGVPDRFSGSGSGIDFILKISRVEAEDVGVYYCMQAQQTPITFGQGTRLEIK | 2.6% | 302 | 3.4% | 348
2 | 12H6 (antibody, V domains shown) VH: QVTLKESGPVLVKPTETLTLTCTVSGFSLSNARMGVSWIRQPPGKALEWLAHIFSTDEKSIRRSLRSRLTLSKDTSKSQVVLTMTNMDPVDTATYYCARDSSNYEGYFDYWGQGTLVTVSS VL: EVVMTQSPATLSVSPGERATLSCRASQGVSSNFAWYQQRPGQSPRLLLYGASTRATGVPGRFSGSGSGTENILTISSLQSEDFAIYFCQQYKDWPFTFGPGSKVDIK | 0.8% | 569 | 1.9% | 188
3 | 14C11 (antibody, V domains shown) VH: QVTLKESGPVLVKPTETLTLTCTVSGFSLNNARMGVSWIRQPPGKALEWFAHIFSTDEKSFRTSLRSRLTLSKDTSKSQVVLTMTNMDPVDTATYYCARDSSNYEGYFDYWGQGILVTVSS VL: EIVMTQSPATLSVSPGERATLSCRASQSVSNNLAWYQQKPGQAPRLLIYGASTRATGVPARFSGSDSGTEFSLTISSLQSEDFAVYFCQQYKDWPFTFGPGTKVEIK | 0.8% | 580 | 1.3% | 185
4 | 19A9 (antibody, V domains shown) VH: QVTLEESGPVLVKPTETLTLTCTVSGFSLSNARMGVSWIRQPPGKAPEWFAHIFSTDEKSLRLSLRSRLTLSKDTSKSQVVLTMTNMDPVDTATYYCARDSSNYEGYFDYWGQGTLVTVSS VL: EVVMTQSPATLSVSPGERATLSCRASQSVNRNLAWYQQKPGQAPRLLIFGTSTRATGIPARFSGSGSGTEFTLTIDSLQSEHSGLYYCQQYNDWPFTFGPGTKVDIK |  | 578 | 1.6% | 168
5 | 20B9 (antibody, V domains shown) VH: QVTLKESGPVLVKPTETLTLTCTVSGFSLSNARMGVSWIRQPPGKALEWLGHIFSTDEKSYSTSLRGRITISKDTSRGLVVLTLTNMDPVDTATYYCARDSSNYEGYFDFWGPGFLVTVSS VL: EIVMTQSPATLSVSPGERATLSCRVSQSIGANLAWYQQKFGQAPRLLIYGASTRATGIPVRFSGGGSGTEFTLTISSLQSEDFAIYSCQQYIYWPFTFGPGTTVDIK |  | 558 | 1.8% | 189
6 | 11B11 (antibody, V domains shown) VH: QVTLKESGPVLVKPTETLTLTCTVSGFSLSNAKMGVSWIRQPPGKALEWLAHIFSTDEKSIRRSLRSRLTMSKDTSKSQVVLTMTNMDPVDTATYYCVRDSSNYEGYFDYWGQGTLVTVSS VL: EVLMTQSPATLSVSPGERATLSCRASQSVSTNFAWYQQRPGQAPRLLLFGASTRATGIPGRFSGSGSGTENILTISSLQSEDFAIYFCQQYKDWPFTFGPGSKVEIK |  | 589 | 1.7% | 187
7 | 12B2 (antibody, V domains shown) VH: QVTLKESGPVLVKPTETLTLTCTVSGFSLSNPRMGVSWIRQPPGKALEWLGHIFSSDEKSYRLSLRSRLSISKDTSKSQVVLTMTNMDPVDTATYYCVRDSSNYGGYFDYWGQGTLVTVSS VL: EVVMTQSPATLSVSPGERATLSCRASQSVINNLAWYQQKPGQAPRLLIYGTSTRATDIPARFSGSGSGTEFTLTISSLQSEDFAVYYCQDYNNWPFTFGPGTKVDIK | 0.8% | 571 | 1.5% | 185
8 | 11F10 (antibody, V domains shown) VH: QVTLKESGPVLVKPIETLTLTCTVCGFSLSNPRMGVSWIRQPPGKALEWLGHIFSSDEKSYRLFLRSRLSISKDTSKSQVVLTMTNMDPVDTATYYCARDSSDYEGYFDYWGQGTLVTVSS VL: EIVMTQSPATLSVSPGERTTLSCRASQSVGSNLAWYQQKPGQAPRLLIYGASTRASGVPARFSGSGSGTEFTLTISSLQSEDFAVYSCQEYNNWPFTFGQGTKVEIK | 1.1% | 582 | 1.6% | 187

More lines, now with the values ahead:

Row | % positive [1] | MFI [1] | % positive [2] | MFI [2] | Binder
9 |  | 271 | 1.6% | 301 | 32G8 (antibody, V domains shown) VH: EVNLVESGGGLVKPGGSLRLSCEASGFTFSYAWMSWVRQAPGKGLEWVGRIKSITDGGVIDYAAPVRNRCTISRDDSRNTLYLEMHSLKTEDTAVYYCTTIPGNDDFDMWGQGRMVTVSS VL: DIVLTQSPLSLSVTPGEPASISCRSSQSLLYSNGKNYLDWFLHKPGQSPQLLIYLGSNRASGVPDRFSGSGSGIDFILKISRVEAEDVGVYYCMQAQQTPITFGQGTRLEIK
10 | 1.3% | 269 | 1.7% | 280 | 30D8 (antibody, V domains shown) VH: EVQLVESGGGLVKPGGSLRLSCEASGFTFSDAWMSWVRQAPGKGLEWVGRIKSKTDGGTTDYVVPLNGRFIISRDDSRNTLYLQLNNLKTEDTAVYYCTTVPGSYGYWGQGTLVTVSS VL: DIVMTQSPLSLPVTPGEPASISCRSSQSLLHNKRNNYLDWFLQKPGQSPQLLIYLASNRASGVPDRFSGGGSGTDFTLKISRVEAEDVGVYYCMQAQQTPITFGQGTRLEIK
11 |  | 391 | 12.6% | 1070 | 20G5 (antibody, V domains shown) VH: EVQLVESGGDLVKPGGSLRLSCAASGFTFTNAWMSWVRQAPGKGLEWVGRIKSKIDGGTTDYAAPVKGRFIISRDDSKNTLSLQMNSLKTEDTAMYYCTTAPGGPFDYWGQGSLVTVSS VL: DIVLTQSPLSLPVTPGEPASISCRSSQSLLYSDRRNYLDWFLQKPGQSPHLLIYLGSYRASGVPDRFSGSGSGTDFTLKISRVEAEDVGVYYCMQALQIPITFGQGTRLEIK
12 | 1.7% | 276 | 2.3% | 298 | 26B9 (antibody, V domains shown) VH: EVQLVESWGVLVKPGGSLRLSCAASGFIFNNAWMSWVRQAPGKGLEWIGRIKSKSDGGTTDYAAPVKDRFTISRDDSKDTLYLQMNGLKTEDTAVYFCTTAPGGPFDYWGQGTLVTVSS VL: DIVLTQSPLSLPVTPGEPASISCRSSQSLLHRDGFNYLDWFLQKPGQSPQLLIYLASSRASGVPDRFSGSDSGTDFTLKISRVEAEDVGVYYCMQALQTPITFGQGTRLEIK
13 | 0.3% | 538 | 1.6% | 185 | 42G9 (antibody, V domains shown) VH: QVTLKESGPVLLKPTETLTLTCTVSGFSLSNPRMGVSWIRQPPGKALEWFAHIFSTDEKSLKLSLRSRLTLSKDTSKSQVVLTMTNMAPVDSATYYCARDSSNYEGYFDFWGQGTLVTVSS VL: EVVLTQSPATLSVSPGERATLSCRASQSVRSNLAWYQQKSGQAPRLLIYGSTIRATGVPARFSGSGSGTEFTLTISSLQSEDFAVYYCQQYSDWPFTFGPGTKVDIK
14 |  | 560 | 1.6% | 187 | 46E10 (antibody, V domains shown) VH: QVTLKESGPVLVKPTETLTLTCTVSGFSLSNARMGVSWIRQPPGKALEWLAHIFSTDEKSIRRSLRSRLTLSKDTSKSQVVLIMTNMDPVDTATYYCARDSSNYEGYFDYWGQGTLVTVSS VL: EVVMTQSPPNLSVSPGERATLSCRASQSVTSNFAWYQQRPGQSPRLLLYGASTRATGVPGRFSGSGSGTENILTISSLQSEDFAVYFCQQYKDWPFTFGPGSKVDIK
15 | 1.1% | 603 | 1.3% | 184 | 21E7 (antibody, V domains shown) VH: QVTLEESGPVLVKPTETLTLTCTVSGFSLSNARMGVSWIRQPPGKAPEWFAHIFSTDEKSLRLSLRSRLTLSKDTSKSQVVLTMTNMDPVDTATYYCARDSSNYEGYFDYWGQGTLVTVSS VL: DVVLTQSPATLSVSPGERATLSCRASQSVNSNLAWYQQNPGQAPRLLIFGSSTRATGIPASFSGSGSGTEFTLTINSLQSEHSAVYYCQQYNDWPFTFGPGTKVDIK
16 |  | 531 |  | 185 | 32A10 (antibody, V domains shown) VH: QVTLKESGPVLVKPTETLTLTCTVSGFSLSNARMGVSWIRQPPGKALEWLAHIFSTDEKSIRRSLRSRLTLSKDTSKSQVVLTMTNMDPVDTATYFCARDSSNYEGYFDYWGQGTLVTVSS VL: EVVMTQSPATLSVSPGERVTLSCRASQSVSSNFAWYQQRPGQAPRLLLYGATTRATGLPGRFSGSGSGTENILTISSLQSEDFAIYFCQQYKDWPFTFGPGSKVDIK
17 | 0.8% | 599 | 1.3% | 185 | 49B11 (antibody, V domains shown) VH: QVTLKESGPVLVKPTETLTLTCTVSGFSLSNVRMGVSWIRQPPGKALEWFAHIFSSDEKSIRRSLRSRLTLSKDTSKSQVVLTMTNMDPVDTATYYCARDSSNYEGYFDYWGQGTLVTVSS VL: EMEVTQSPATLSVSPGERATLSCRASQNIGSDLAWYQQQSGQAPRLLISGASTRATGVPTRFSGSGSGTDFTLTITSLQSEDFAVYYCQQYNDWPFTFGPGTKVDIK
18 | 0.4% | 531 | 1.3% | 185 | 29D5 (antibody, V domains shown) VH: QVTLKESGPVLVKPTETLTLTCTVSGFSLSNPRMGVSWLRQPPGKALEWFAHIFSTDEKSYSPSLRGRLTVSKDTSKSQVVLTLTNMDPVDTATYYCARDSSNYEGYFDYWGQGTLVTVSS VL: KIVMTQSPATLSVSPGERATLSCRANQIVSSNLAWYQQKPGQAPRLLVFGTSTRATGIPIRFSGSGSGTEFTLTVSSLQSEDFAVYVCQQYNDWPFTFGPGTKVDIK
19 |  | 555 | 1.3% | 184 | 21E11 (antibody, V domains shown) VH: QVTLKESGPVLVKPTETLTLTCTVSGFSLSNVRMGVSWIRQPPGKALEWFAHIFSSDEKSIRRSLRSRLTLSKDTSKSQVVLTMTNMDPVDTATYYCARDSSNYEGYFDFWGQGTLVTVSSN VL: DMVVTQSPATLSVSPGERATLSCRASQSVGSDLAWYQQPPGQSPRLLIYGASTRATGVPARFSGSGSGTDFTLTITSLESEDFAVYYCQQYNDWPFTFGPGTKVDIK
